The results in this text go back to patent US20220073604A1 (ARGENX BVBA, published 2022).

Numbering of substitutions follows the chain as printed. Values joined by “and” are separate entries in the source; they are usually repeats but may differ in a detail not shown here. Identical values can stand only once.

Experiment [1] has as its target T1, bacterially produced human IL-6 (human, UniProt P05231 30-212).
T1 construct: also called bactIL-6; prokaryotic IL-6
The experiment is described as follows: SPR; purified Fab over biotinylated IL-6 on streptavidin chip.
Method: (§1) From the washing phase the off-rate (kd) was determined, while from the injection phase the on-rate (ka) was calculated using the concentration and off-rate as parameters.

In experiment [2] the target is T2, eukaryotically produced human IL-6 (human, UniProt P05231 30-212).
T2 construct: also called eukIL-6; Euk IL-6
As to the kind of experiment: SPR; purified Fab; IL-6 coated on CM5 chip.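 Also: dissociation rate taken from the wash phase, association rate fitted over the injection phase with analyte concentration and dissociation rate as inputs.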 For orientation: In SPR one partner is held on a chip, and binding of the other changes the refractive index at the surface.
Method: as §1

The target in experiment [3] is T1, bacterially produced human IL-6. As to the kind of experiment: SPR; purified Fab; IL-6 coated on CM5 chip.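 Also: dissociation rate taken from the wash phase, association rate fitted over the injection phase with analyte concentration and dissociation rate as inputs.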
Method: as §1
The target in experiment [4] is T2, eukaryotically produced human IL-6. As to the kind of experiment: SPR; purified Fab.
The target of experiment [5] is T3, cynomolgus monkey IL-6 (cynomolgus monkey, UniProt P79341 28-212, limits assumed).
T3 construct: also called HIS-cyIL-6
As to the kind of experiment: SPR; purified Fab.

For experiment [6], the target named is human IL-6 (as added in the B9 and 7TD1 bioassays) (human, UniProt P05231 30-212). As to the kind of experiment: cell-based or functional assay.
Experiment [7] has as its target T2, eukaryotically produced human IL-6. As to the kind of experiment: SPR; periplasmic fraction.
Experiment [8] concerns the target T1, bacterially produced human IL-6. The experiment is described as follows: SPR; periplasmic fraction.
Experiment [9] has as its target T3, cynomolgus monkey IL-6. The experiment is described as follows: SPR; periplasmic fraction.
Experiment [10] concerns the target T1, bacterially produced human IL-6. The experiment is described as follows: SPR; periplasmic fraction; against parental 29B11.
Experiment [11] deals with T3, cynomolgus monkey IL-6. The experiment is described as follows: SPR; periplasmic fraction; against parental 29B11.
In experiment [12] the target is T1, bacterially produced human IL-6. As to the kind of experiment: SPR; purified Fab.

B1: Fab 24E9 (Fab, V domains shown)
VH: EVQLVESGGGLVQPGGSLRLSCAASGFTFSTYAMSWVRQAPGKGPEWVSRISSGGGSTNYADSVKGRFTISRDNAKKTLYLQMKSLKPEDTAVYYCANRAGWGMGDYWGQGTQVTVSS
VL: QTVVTQEPSLSVSPGGTVTLTCGLSSGSVTASNYPGWFQQTPGQAPRALIYSTNDRHSGVPSRFSGSISGNKAALTITGAQPEDEADYYCALDIGDITEFGGGTHLTVLG
notes: Fab
Usually Kd stands for a measure of binding affinity in units of concentration. For orientation: koff means the rate constant with which the complex falls apart. A word on the kon: it is the rate constant with which the complex forms. In experiment [1], B1 showed a Ka of 8.38e+08 M⁻¹, a Kd of 1.19 nM, a koff of 0.000139 s⁻¹ and a kon of 117000 M⁻¹ s⁻¹. In experiment [2], the Kd came out at 0.71 nM and the koff amounted to 0.00024 s⁻¹. In [3], this molecule registered a Kd of 0.93 nM and a koff of 0.00029 s⁻¹.

B2: Fab 24C9 (Fab, V domains shown)
VH: QVQLVESGGGLVQPGGSLRLSCAASGFTFSSYRMYWVRQPPGKGLEWVSAISAGGGSTYYGDSVKGRFTISRDNAKNTVYLQMNSLKPEDTALYYCKKSTWADGESDYWGQGTQVTVSS
VL: B1 VL
notes: Fab
Regarding B2, in experiment [1], the Ka came to 1.51e+09 M⁻¹; the affinity, expressed as Kd, was 0.661 nM; the off-rate (koff) worked out at 8.77e-05 s⁻¹; the association rate constant (kon) worked out at 133000 M⁻¹ s⁻¹. In experiment [2], this molecule registered a Kd of 1.7 nM and a koff of 0.0003 s⁻¹. Moreover, in [3], the Kd was determined as 2.6 nM and the off-rate (koff) amounted to 0.00037 s⁻¹.

B3: Fab 18C9 (Fab, V domains shown)
VH: EVQLVESGGGLVQPGGSLRLSCAASGFTFSRNAMSWVRQAPGKGLEWVSAINSGGGSTSYADSVKGRFTISRDNAKNTLYLQMNSLKPEDTAVYYCAKEGYTGWKDPMYDYWGQGTQVTVSS
VL: LNFMLTQPSALSVTLGQTAKITCQGGSLGSRYAHWYQQKPGQAPVLVIYDDDSRPSGIPERFSGSSSGGRATLTISGAQAEDDGDYYCQSADSSGNASVFGGGTHLTVLG
notes: Fab
In experiment [1], B3 showed a Ka of 4.67e+07 M⁻¹, a Kd of 21.4 nM, a koff of 0.00119 s⁻¹ and a kon of 55600 M⁻¹ s⁻¹. In addition, in [2], the dissociation constant (Kd) was 2.4 nM and the koff came to 0.00021 s⁻¹. In experiment [3], the affinity, expressed as Kd, was 4.9 nM and the koff worked out at 0.00036 s⁻¹.

B4: Fab 18C11 (Fab, V domains shown)
VH: B3 VH with R31S, N32Y, Y101D
VL: QSVVTQPSALSVTLGQTAKITCQGGGLRSSYAHWYQQKPGQAPVLVIYDDDSRPSGIPERFSGSSSGGRATLTISGAQAEDEGDYYCQSADSSGNAAVFGGGTHLTVLG
notes: Fab
With B4, in [1], the Ka was 7.05e+07 M⁻¹, the dissociation constant Kd is 14.2 nM, the koff was determined as 0.000784 s⁻¹ and the on-rate (kon) was 55200 M⁻¹ s⁻¹. For the same molecule, in [4], the Kd is 2.9 nM and the koff was 0.00076 s⁻¹. In experiment [5], this molecule displayed a Kd of 3.4 nM and a dissociation rate constant (koff) of 0.00085 s⁻¹.

B5: 133A9 (germlined variant of 68F2) (antibody, V domains shown)
VH: EVQLQESGPGLVKPSQTLSLTCTVSGGSITTRYYAWSWIRQPPGKGLEWIGVIDYEGDTYYSPSLKSRVTISVDTSKNQFSLKLSSVTAEDTAVYYCARDPDVVTGFHYDYWGQGTMVTVSS
VL: QSALTQPPLVSGSPGQTVTISCAGANNDIGTYAYVSWYQQPPGTAPKLMIYKVTTRASGIPDRFSGSISGNTASLTISGLQSEDEADYYCASYRNFNNAVFGTGTKLTVL
As for B5, in experiment [6], the “IC50, 7TD1 cells” value came to 0.00018 nM and the “Potency relative to 68F2, 7TD1 cells” value is 3.66.

B6: Fab 29B11 (Fab, V domains shown)
VH: EVQLVESGGGLVQPGGSLRLSCAASGFTFSSYAMSWVRQAPGKGLEWVSRISSGGISTYYADSVKGRFTISRDNAKNTLYLQMNSLKPEDTAVYYCVRYAWGVQWAFDFWGQGTQVTVSS
VL: QSVLTQPPSVSGSPGQTVTISCAGTSEDVGYGNYVSWYQQLPGMAPKLLIYDVNKRASGIADRFSGSKSGNTASLTISGLQSEDEADYYCASYRRTIDNIFGGGTHLTVLG
notes: Fab
On to B6, for which the Ka in [7] worked out at 1.83e+09 M⁻¹; in experiment [8] it was 1.91e+09 M⁻¹; in experiment [9], 1.51e+08 M⁻¹; in experiment [1] it was 4.36e+07 M⁻¹. Besides, the Kd in experiment [7] turned out to be 0.546 nM; in experiment [8], 0.524 nM; in [9], 6.61 nM; in experiment [1], 22.9 nM; in experiment [2] it was 0.51 nM; in experiment [3] it was 0.93 nM. Further, the off-rate (koff) in experiment [7] turned out to be 0.000102 s⁻¹; in [8], 0.000131 s⁻¹; in [9], 0.000746 s⁻¹; in experiment [1], 0.00298 s⁻¹; in [2], 0.0001 s⁻¹; in [3] it was 0.00022 s⁻¹. Besides, the kon came to 187000 M⁻¹ s⁻¹ in experiment [7], 251000 M⁻¹ s⁻¹ in [8], 113000 M⁻¹ s⁻¹ in experiment [9] and 130000 M⁻¹ s⁻¹ in experiment [1].

B7: Fab 48C10 (Fab, V domains shown)
VH: B6 VH
VL: AQSVLTQPPSVSGSPGQTVTISCAGTSEDVGYGNYVSWYQQLPGMAPKLLIYDVNKRASGIADRFSGSKSGNTASLTISGLQSEDEADYYCASYRRTIDNIFGGGTHLTVLG
notes: VL-shuffled Fab of 29B11, periplasmic fraction
Turning to B7, in [8], the Ka amounted to 1.43e+09 M⁻¹, binding was characterised by a dissociation constant (Kd) of 0.701 nM, the off-rate (koff) was determined as 0.000184 s⁻¹ and the kon was determined as 262000 M⁻¹ s⁻¹. In addition, in [9], the Ka was determined as 4.1e+08 M⁻¹, the Kd came out at 2.44 nM, the koff was found to be 0.00044 s⁻¹ and the kon turned out to be 180000 M⁻¹ s⁻¹. In addition, in experiment [10], the “fold improvement KD” value was determined as 0.75 fold, the fold improvement ka came out at 1.04 fold and the fold improvement kd came to 0.71 fold. Further, in experiment [11], the “fold improvement KD” value is 2.71 fold, the fold improvement ka was 1.59 fold and the fold improvement kd turned out to be 1.7 fold.

B8: Fab 41E10/35B1 (Fab, V domains shown)
VH: EVQLQESGPGLVKPSQTLSLTCTVSGGSIATSYYAWSWIRQPPGKGLEWMGVIDYDGDTYYKPSLKSRTSISRDTSKNQFSLQLSSVTPEDTAVYYCARAGLGDSYYLGTYYAMDYWGKGTLVTVSS
VL: QAVLTQPPSMSGTLGKTLTISCNGTSSDIGSGNYVSWYQQLPGTTPKLLIEGVTTRVSGIPDRFSGSKSDNTASLTISGLQSEDEATYYCASYRETNNVVFGGGTHLTVLG
notes: VL-shuffled Fab of 17F10
For the molecule B8, the Kd in experiment [4] is 0.46 nM; in experiment [12], 0.54 nM; in experiment [5], 0.34 nM. In addition, the koff in experiment [4] was found to be 0.00016 s⁻¹; in experiment [12], 0.00016 s⁻¹; in experiment [5], 0.00012 s⁻¹.

B9: Fab 41B5/35C1 (Fab, V domains shown)
VH: B8 VH
VL: B8 VL with A2S, V3A, N33D, V57A, G66A, G111S
notes: VL-shuffled Fab of 17F10
Turning to B9, the Kd in [4] is 0.41 nM and 0.92 nM; in experiment [12], 0.47 nM; in experiment [5], 0.28 nM and 0.72 nM. The koff in [4] was 0.00012 s⁻¹ and 0.0002 s⁻¹; in experiment [12], 0.00011 s⁻¹; in [5] it was 8.1e-05 s⁻¹ and 0.00017 s⁻¹.

B10: 111A7_SDM2_M100A (antibody, V domains shown)
VH: EVQLLESGGGLVQPGGSLRLSCAASGFTFSSYAMSWVRQAPGKGPEWVSRISAGGGSTYYGDSVKGRFTISRDNSKNTLYLQMNSLRAEDTAVYYCANRAGWGAGDYWGQGTLVTVSS
VL: QTVVTQEPSFSVSPGGTVTLTCGLSSGSVTASNYPGWYQQTPGQAPRALIYSTNDRHSGVPDRFSGSISGNKAALTITGAQAEDEADYYCALDIGDITEFGGGTQLTVL
As to B10, in [6], the “IC50, 7TD1 cells” value stood at 0.00157 nM and the “Potency relative to 68F2, 7TD1 cells” value turned out to be 0.43.
